Source: patent US20150044213A1 (published 2015)
Where “and” joins values, the source holds several entries; their conditions need not be identical. Identical values can stand only once.

Key:
[1] = target: T1, Recombinant human VEGF165 (human, UniProt P15692-4 27-191); test: SPR (BIAcore T100), VEGF165 on CM4 chip, 1:1 Langmuir model; scFv released from hexPLA formulation, release sample at 4 w
T1 construct: Immobilized on a CM4 sensor chip by amine coupling (about 500 RU)
Procedure: (§1) The affinity of the released ESBA903 monomer toward human VEGF was measured using surface plasmon resonance analysis in comparison to a fresh ESBA903 reference. For evaluation of the binding kinetics, surface plasmon resonance measurements using a BIAcore T100 were performed. Carboxymethylated dextran biosensor chips (CM4, GE HealthCare, Uppsala, Sweden) were activated with N-ethyl-N′-(3-dimethylaminopropyl) carbodiimide hydrochloride and N-hydroxysuccinimide according to the supplier's instructions. Recombinant human VEGF₁₆₅ (PeproTech EC Ltd., London, UK) was immobilized on a CM4 sensor chip using a standard amine-coupling procedure to achieve a response of approximately 500 resonance units. 2-fold serial dilutions (2.5-20 nM) of ESBA903 standard and formulation samples in HBS-EP buffer (10 mM HEPES, 150 mM NaCl, 3 mM EDTA, and 0.05% surfactant P20, pH 7.4) were injected into the flow cells at a flow rate of 30 μL/min for 5 minutes. Dissociation of the anti-VEGF scFv from the VEGF on the CM4 chip was allowed to proceed for 10 minutes. After each injection cycle, surfaces were regenerated with 2 injections of 100 mM NaOH.
(§2) The apparent dissociation (kd) and association (kₐ) rate constants and the apparent dissociation equilibrium constant (KD) were calculated with BIAcore T100 evaluation Software version 2.0.1 using a one-to-one Langmuir binding model (Biacore Inc., Uppsala, Sweden).

[2] = target: T1, Recombinant human VEGF165; test: SPR (BIAcore T100), VEGF165 on CM4 chip, 1:1 Langmuir model; scFv released from hexPLA formulation, release sample at 14 w
Procedure: as §1, §2

[3] = target: T1, Recombinant human VEGF165; test: SPR (BIAcore T100), VEGF165 on CM4 chip, 1:1 Langmuir model; scFv released from hexPLA formulation, release sample at 3 d
Procedure: as §1, §2

[4] = target: T1, Recombinant human VEGF165; test: SPR (BIAcore T100), VEGF165 amine-coupled on CM4 chip, scFv 2.5-20 nM injected, 1:1 Langmuir model; fresh reference, time 0
Procedure: as §1, §2

T1 sequence (P15692 other isoform, or with tags, fused parts or gaps limits assumed): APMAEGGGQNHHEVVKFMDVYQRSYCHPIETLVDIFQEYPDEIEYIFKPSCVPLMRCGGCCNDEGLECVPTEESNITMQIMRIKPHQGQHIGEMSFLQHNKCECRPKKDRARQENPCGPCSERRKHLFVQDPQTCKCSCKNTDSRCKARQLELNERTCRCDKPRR

B1: ESBA903 (scFv)
scFv: EIVMTQSPSTLSASVGDRVIITCQASEIIHSWLAWYQQKPGKAPKLLIYLASTLASGVPSRFSGSGSGAEFTLTISSLQPDDFATYYCQNVYLASTNGANFGQGTKLTVLGGGGGSGGGGSGGGGSGGGGSEVQLVESGGGLVQPGGSLRLSCTASGFSLTDYYYMTWVRQAPGKGLEWVGFIDPDDDPYYATWAKGRFTISRDTSKNTVYLQMNSLRAEDTAVYYCAGGDHNSGWGLDIWGQGTLVTVSS
notes: Monomeric scFv (about 25 kDa); same protein in all samples; also called humanized antibody-fragment ESBA903; humanized VEGF-antibody fragment ESBA903
- Kd [1]: 0.0643 nM and 0.0521 nM and 0.0552 nM
- koff [1]: 3.56e-05 s⁻¹ and 3.03e-05 s⁻¹ and 2.34e-05 s⁻¹
- kon [1]: 554000 M⁻¹ s⁻¹ and 582000 M⁻¹ s⁻¹ and 424000 M⁻¹ s⁻¹
- Kd [2]: 0.0762 nM and 0.066 nM and 0.0826 nM
- koff [2]: 3.11e-05 s⁻¹ and 2.78e-05 s⁻¹ and 3.37e-05 s⁻¹
- kon [2]: 407000 M⁻¹ s⁻¹ and 421000 M⁻¹ s⁻¹ and 408000 M⁻¹ s⁻¹
- Kd [3]: 0.0594 nM and 0.0685 nM and 0.0489 nM
- koff [3]: 2.77e-05 s⁻¹ and 3e-05 s⁻¹ and 2.59e-05 s⁻¹
- kon [3]: 465000 M⁻¹ s⁻¹ and 439000 M⁻¹ s⁻¹ and 529000 M⁻¹ s⁻¹
- Kd [4]: 0.0256 nM
- koff [4]: 2.45e-05 s⁻¹
- kon [4]: 956000 M⁻¹ s⁻¹
